Laboratory results: US20260008852A1 (CRYSTAL BIOSCIENCE, published 2026)

T1: his-tagged B7-H3 (UniProt Q5ZPR3-2 29-245, limits assumed)
T1 construct: also called CD276; not shown: His tag
T1 sequence (looked up): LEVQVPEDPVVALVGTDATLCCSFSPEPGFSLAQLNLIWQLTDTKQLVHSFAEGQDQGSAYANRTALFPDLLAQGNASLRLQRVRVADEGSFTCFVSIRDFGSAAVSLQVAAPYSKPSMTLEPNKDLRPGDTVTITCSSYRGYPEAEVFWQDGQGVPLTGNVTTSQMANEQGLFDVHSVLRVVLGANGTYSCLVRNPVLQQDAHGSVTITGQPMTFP


target: T1, his-tagged B7-H3; assay: SPR, Carterra LSA; binder captured by anti-human Fc, his-tagged B7-H3 injected
Procedure: Binding affinities of anti-B7-H3 antibodies to B7-H3 were measured by Surface Plasmon Resonance (SPR) on a Carterra LSA instrument. Goat anti-human Fc antibody was amine coupled to a HC30M chip. ScFv-Fc supernatants were diluted 30-fold with HBSTE and were captured by the anti-human Fc coupled HC30M chip. A 1:2 dilution series of his-tagged B7-H3, starting at 400 nM, was injected onto the chip for binding. Data was analyzed using the Carterra TM Kinetics software.

| Kd [nM] | koff [s⁻¹] | kon [M⁻¹ s⁻¹] | Binder |
| --- | --- | --- | --- |
| 17.4 | 0.01 | 714000 | 40633p1.1.A11 scFv-Fc (scFv, V domains shown) VH: EVQLLESGGDLVQPGGSLRLSCAASGFTFNTYWMNWVRQAPGKGLEWVAGINSKGGVTYYADSVKGRFTISRDNSKNTLYLQMNSLRAEDTAVYYCADWNDYDIMDVWGQGTTVTVSS VL: QSVLTQPPSASGTPGQTITISCSGSSSNVGRRTVNWYQQLPGTAPKLLIYTNAQRPSGVPDRFSGSKSGTSASLAISGLQSEDEADYYCATWDDSLNAWVFGGGTKLTVL |
| 1 | – | 166000 | 40633p1.1.A6 scFv-Fc (scFv, V domains shown) VH: EVQLLESGGGLVQPGGSLRLSCAASGFSFSNYDMSWVRQAPGKGLEWVAGIRSGSRTYYADSVKGRFTISRDNSKNTLYLQMNSLRAEDTATYYCGRYFNMDVWGQGTTVTVSS VL: QSVLTQPPSASGTPGQRVTISCSGSTFNIGTNLVHWYQQLPGTAPKLLIYLTDRRPSGVPDRFSGSKSGTSASLAISGLQSEDEANYYCATWDDSLNSFLFGGGTKLTVL |
| 7.72 | – | 252000 | 40579p1.H6 scFv-Fc (scFv, V domains shown) VH: EVQLLESGGGLVQPGGSLRLSCAASGFTVNNAWMSWVRQAPGKGLEWVSAISYGGSIYYADSVKGRFTISRDNSKNTLYLQMNSLRAEDTAVYYCAKHRSTTYNGMDVWGQGTTVTVSS VL: EIVLTQSPGTLSLSPGERATLSCRASQSVGSFLAWYQQKPGQAPRLLIYGANTRAAGIPDRFRGSGNGTDFTLTISSLQSEDFAVYYCQQYYDWPPLTFGGGTKVEIK |
| 5.57 | – | 281000 | 40579p1.H7 scFv-Fc (scFv, V domains shown, Tested as scFv-Fc supernatant) VH: EVQLLESGGDLVQPGGSLRLSCAASGFNFSSYWMSWVRQAPGKGLEWVSGISISYGGNAYYADSVKGRFTVSRDNSKNTLYLQMNSLRAEDTAVYYCGRDRSPYQYRSMDVWGQGTTVTVSS VL: EIVLTQSPGTLSLSPGERATLSCRASQSIRSDLAWYQQKPGQAPRLLIYGASSRATGIPARFSGSGSGTEFTLTISSLQSEDFAVYYCQQYNNWPPLTFGGGTKVEIK |
| 3.62 | – | 371000 | 40633p1.1.A7 scFv-Fc (scFv, V domains shown, Tested as scFv-Fc supernatant) VH: EVQLLESGGGLVQPGGSLRLSCAASGFTVSYYGMSWVRQAPGKGLEWVSAIKQDGSEKYYADSVKGRFTISRDNSKNTLYLQMNSLRAEDTAVYYCARHWNDYSNAMNVWGQGTTVTVSS VL: QSVLTQPPSASGTPGQRVTISCSGSTSNIGRESVYWYQQLPGTAPKLLIYTIDQRPSGVPDRFSGSKSGTSASLAISGLQSEDEAVYYCASWDASLNGWVFGGGTKLTVL |
| 20.7 | – | 33500 | 40633p1.2.C3 scFv-Fc (scFv, V domains shown, Tested as scFv-Fc supernatant) VH: EVQLLESGGGLVQPGGSLRLSCAASGFTVSYYGMSWVRQAPGKGLEWVSAIKQDGSEKYYADSVKGRFTISRDNSKNTLYLQMNSLRAEDTAVYYCARHWNDYSNAMNVWEQGTTVTVSS VL: QSVLTQPPSASGTPGQRVTISCSGSNSNVGGNYVSWYQQLPGTAPKLLIYRNSQRPSGVPDRFSGSKSGTSASLAISGLQSEDEAVYYCASWDASLNGWVFGGGTKLTVL |
| 1.48 | – | 434000 | 40633p1.1.G11 scFv-Fc (scFv, V domains shown, Tested as scFv-Fc supernatant) VH: EVQLLESGGGLVQPGGSLRLSCAASGFTVSYYGMSWVRQAPGKGLEWVSVIKQDGSEEYYADSVKGRFTISRDNSKNTLYLQMNSPRAEDTAVYYCARHWNDYSNGMNVWGQGTTVTVSS VL: QSVLTQPPSASGTPGQRVTISCSGSTSNVGDRYVYWYQQLPGTAPKLLIYLDDQRPSGVPDRFSGSKSGTSASLAISGLQSEDEADYYCASWDASLNGWVFGGGTKLTVL |
| 212 | 0.02 | 108000 | 40579p1.F7 scFv-Fc (scFv, V domains shown, Tested as scFv-Fc supernatant) VH: EVQLLESGGGLVQPGGSLRLSCAASGFTFSDYYMSWVRQAPGKGLEWVSGISISYGGNAYYADSVKGRFTVSRDNSKNTLYLQMNSLRAEDTAVYYCGRDRSPYQYRSMDVWGQGTTVTVSS VL: EIVLTQSPGTLSLSPGERATLTCRASQSVGDFLAWYQQKPGQAPRLLIYGASTRAAGIPARFRGSGSGTDFTLTISSLQSEDFAVYYCQQYKNWPPLTFGGGTKVEIK |

More lines, now with the values behind:

| Binder | Kd [nM] | koff [s⁻¹] | kon [M⁻¹ s⁻¹] |
| --- | --- | --- | --- |
| 40511p1.2.A4 scFv-Fc (scFv, V domains shown, Tested as scFv-Fc supernatant) VH: DVQLVESGGGVVRPGESLRLSCAASGFTFSSYAESWVRQAPGEGLEWVSIISGSGGNTFYADSVKGRFTISRDNSKNTLYLQMNSLRAEDTAVYYCARFAYGFFDYWGLGTLVTVSS VL: EIVLTQSPGTLSVSPGERATLSCRASQTVGSKLAWYQQKPGQAPRLLIYDASTRATDIPDRFSGSGSGTDFTLTISSLQSEDFAVYYCQQYRNWPPLTFGGGTKVEIK | 52 | 0.04 | 768000 |
| 40579p1.C2 scFv-Fc (scFv, V domains shown, Tested as scFv-Fc supernatant) VH: EVQLLESGGDLVQPGGSLRLSCAASGFNFSSYWMSWVRQAPGKGLEWVSGISISYGGNAYYADSVKGRFTVSRDNSKNTLYLQMNSLRAEDTAVYYCGRDRSPYQYRSMDVWGQGTTVTVSS VL: EIVLTQSPATLSVSPGERATFSCRASQTIGNKLAWYQQKPGQAPRLLIFSASTRATDIPDRFSGSGSGTDFTLTISSLQSEDFAVYYCQQYNNWPPLTFGGGTKVEIK | 9.11 | – | 452000 |
| 40579p1.B8 scFv-Fc (scFv, V domains shown) VH: EVQLLESGGGLVQPGGSLRLSCAASGFTFSDYYMSWVRQAPGKGLEWVSGISMSSTIYYADSVKGRFTISRDNSKNTLYLQMNSLRAEDTAVYYCARHRSPYQYRSMDVWGQGTTVTVSS VL: EIVLTQSPGTLSLSPGERATLSCRASQSVNSKLAWYQQKPGQPPSLLIYDASRRATGIPDRFSGSGSGTEFTLTISSLQSEDFAVYYCQQYNNWPPLTFGGGTKVEIK | 3.1 | – | 622000 |
| 40511p1.2.A8 scFv-Fc (scFv, V domains shown) VH: not shown VL: EIVLTQSPATLSVSPGERATFSCRASQNVRSYLAWYQQKPGQAPRLLIFNTVTRATGIPDRFSGSGSGTDFTLTISSLEPEDFAVYYCQQYYDWPPLTFGGGTKVEIK | 0.639 | – | 364000 |
| 40511p1.1.H10 scFv-Fc (scFv, V domains shown) VH: DVQLVESGGGVVRPGESLRLSCAASGFTFSNYAMNWVRQAPGEGLEWVSRINYKGYNITYYADSVKGRFTISRDNSKNTLYLQMNSLRAEDTAVYYCAKSGSNSNNFFDYWGLGTLVTVSS VL: EIVLTQSPGNLSLSPGERATLSCRASQSVGSQLGWYQQKPGQAPRLLIYGASTRATGIPDRFSGSGSGTEFALTISSLQSEDFAVYYCQQYYDWPPLTFGGGTKVEIK | 1.41 | – | 752000 |
| 40579p1.G1 scFv-Fc (scFv, V domains shown, Tested as scFv-Fc supernatant) VH: EVQLLESGGGLVQPGGSLRLSCAASGFNFSSYWMSWVRQAPGKGLEWVSGISISYGGNAYYADSVKGRFTVSRDNSKNTLYLQMNSLRAEDTAVYYCGRDRSPYQYRSMDVWGQGTTVTVSS VL: EIVLTQSPGTLSLSPGERATLSCRASQSIRSDLAWYQQKPGQAPRLLIYGASSRATGIPARFSGSGSGTEFTLTISSLQSEDFAVYYCQQYNNWPPLTFGGGTKVEIK | 6.75 | – | 260000 |
| 40511p1.1.H5 scFv-Fc (scFv, V domains shown, Tested as scFv-Fc supernatant) VH: DVQLVESGGGVVRPGESLRLSCAASGFTFSNYAMNWVRQAPGEGLEWVSRINYKGYNITYYADSVKGRFTISRDNSKNTLYLQMNSLRAEDTAVYYCAKSGSNSNNFFDYWGLGTLVTVSS VL: EIVLTQSPGTLSLSPGERATLSCRASQSIRSDLAWYQQKPGQAPRLLIYGAASRATGIPARFSGSGSGTEFTLTISSLQSGDFAVYYCQQYNSWPPLTFGGGTKVEIK | 123 | – | 10300 |
| 40511p1.2.G10 scFv-Fc (scFv, V domains shown, Tested as scFv-Fc supernatant) VH: DVQLVESGGGVVRPGESLRLSCAASGFTFSNYAMNWVRQAPGEGLEWVSRINYKGYNITYYADSVKGRFTISRDNSKNTLYLQMNSLRAEDTAVYYCAKSGSNSNNFFDYWGLGTLVTVSS VL: EIVLTQSPGTLSLSPGERATLSCRASQTVGSKLAWYQQKPGQAPRLLIYGASTRATDIPDRFSGSGSGTEFTLTISSLQSEDFAVYYCQQYINWPPLSFGGGTKVEIK | 15 | 0.01 | 645000 |
| 40633p1.2.A10 scFv-Fc (scFv, V domains shown, Tested as scFv-Fc supernatant) VH: EVQLLESGGGLVQPGGSLRLSCAASGFTVSYYGMSWVRQAPGKGLEWVSVIKQDGSEEYYADSVKGRFTISRDNSKNTLYLQMNSLRAEDTAVYYCARHWNDYSNGMNVWGQGTTVTVSS VL: QSVLTQPPSASGTPGQRVTISCSGSTSNVGDRYVYWYQQLPGTAPKLLIYLDDQRPSGVPDRFSGSKSGTSASLAISGLQSEDEADYYCASWDASLNGWVFGGGTKLTVL | 1.44 | – | 422000 |
| 40511p1.2.B5 scFv-Fc (scFv, V domains shown) VH: DVQLVESGGGVVRPGESLRLSCAASGFTFSSYAMSWVRQAPGEGLEWVSSISGSGGSTLYADSVKGRFTISRDSSNNSLYLQMNSLRAEDTAVYYCAKARNNFFDYWGLGTLVTVSS VL: EIVLTQSPGTLTLSPGERATLSCRASRSILTSLAWYQQRPGQTPRLLIYGANSRATGIPDRFSGSGSGTEFTLTISSLQSEDFAVYYCQQYYDWLTITFGGGTKVEIK | 61.2 | 0.05 | 795000 |
| 40579p1.D8 scFv-Fc (scFv, V domains shown, Tested as scFv-Fc supernatant) VH: EVQLLESGGGLVQPGGSLRLSCAASGFTFSDYYMSWVRQAPGKGLEWVSSISISYGGTTYYADSVKGRFTISRDNSKNTLYLQMNSLRAEDTAVYYCARDRSPYQCRSMDVWGQGTTVTVSS VL: EIVLTQSPGTLSLSPGERATLSCRASQSIRSDLAWYQQKPGQAPRLLIYNTVTRATGVPDRFSGSGSGTEFTLTISSLQSEDFAVYYCQQYNSWPPLTFGGGTKVEIK | 44.2 | – | 25700 |
| 40579p1.E5 scFv-Fc (scFv, V domains shown) VH: EVQLLESGGGLVQPGGSLRLSCAASGFTFSDDWMTWVRQAPGKGLEWVSAINWNGNSTHYADSVKGRFTVSRDNSKNTLYLQMNSLRAEDTAVYYCAKSRTTYYSSMDVWGQGTTVTVSS VL: EIVLTQSPGTLSLSPGERATLSCRASQTVGSYLAWYQQKPGQAPRLLIYGASSRATGIPARFSGSGSGTDFTLTISSLQSEDFAVYYCQHYYDWPPYSFGGGTKVEIK | 2.51 | – | 493000 |
